Data set [1] concerns the molecule itself. Put plainly: AUC.
Data set [2] deals with the molecule itself. In words: AUC. The source holds these as a separate data set.

B1: Sen[K252,255A] (enzyme, UniProt Q5XD01 1-435, looked up)
chain: MSIITDVYAREVLDSRGNPTLEVEVYTESGAFGRGMVPSGASTGEHEAVELRDGDKSRYLGLGTQKAVDNVNNIIAKAIIGYDVRDQQAIDRAMIALDGTPNKGKLGANAILGVSIAVARAAADYLEVPLYTYLGGFNTKVLPTPMMNIINGGSHSDAPIAFQEFMIMPVGAPTFKEGLRWGAEVFHALKKILKERGLVTAVGDEGGFAPKFEGTEDGVETILKAIEAAGYEAGENGIMIGFDCASSEFYDAERAVYDYTKFEGEGAAVRTSAEQVDYLEELVNKYPIITIEDGMDENDWDGWKVLTERLGKRVQLVGDDFFVTNTEYLARGIKENAANSILIKVNQIGTLTETFEAIEMAKEAGYTAVVSHRSGETEDSTIADIAVATNAGQIKTGSLSRTDRIAKYNQLLRIEDQLGEVAQYKGIKSFYNLKK
For orientation: stoichiometry N means a count of units in the complex or per binding partner. For the protein B1, in the data set “AUC [1]”, the “stoichiometry N” value is 8. Also, the percent as octamer in the data set “AUC [2]” was not below 95%.

B2: Sen[K434,435A] (enzyme, UniProt Q5XD01 1-435, looked up)
chain: MSIITDVYAREVLDSRGNPTLEVEVYTESGAFGRGMVPSGASTGEHEAVELRDGDKSRYLGLGTQKAVDNVNNIIAKAIIGYDVRDQQAIDRAMIALDGTPNKGKLGANAILGVSIAVARAAADYLEVPLYTYLGGFNTKVLPTPMMNIINGGSHSDAPIAFQEFMIMPVGAPTFKEGLRWGAEVFHALKKILKERGLVTAVGDEGGFAPKFEGTEDGVETILKAIEAAGYEAGENGIMIGFDCASSEFYDKERKVYDYTKFEGEGAAVRTSAEQVDYLEELVNKYPIITIEDGMDENDWDGWKVLTERLGKRVQLVGDDFFVTNTEYLARGIKENAANSILIKVNQIGTLTETFEAIEMAKEAGYTAVVSHRSGETEDSTIADIAVATNAGQIKTGSLSRTDRIAKYNQLLRIEDQLGEVAQYKGIKSFYNLAA
On to B2, for which, in the data set “AUC [1]”, the “stoichiometry N” value was 8. Further, in “AUC [2]”, the percent as octamer was not below 95%.

B3: Sen[K252,255,434,435A] (enzyme, UniProt Q5XD01 1-435, looked up)
chain: MSIITDVYAREVLDSRGNPTLEVEVYTESGAFGRGMVPSGASTGEHEAVELRDGDKSRYLGLGTQKAVDNVNNIIAKAIIGYDVRDQQAIDRAMIALDGTPNKGKLGANAILGVSIAVARAAADYLEVPLYTYLGGFNTKVLPTPMMNIINGGSHSDAPIAFQEFMIMPVGAPTFKEGLRWGAEVFHALKKILKERGLVTAVGDEGGFAPKFEGTEDGVETILKAIEAAGYEAGENGIMIGFDCASSEFYDAERAVYDYTKFEGEGAAVRTSAEQVDYLEELVNKYPIITIEDGMDENDWDGWKVLTERLGKRVQLVGDDFFVTNTEYLARGIKENAANSILIKVNQIGTLTETFEAIEMAKEAGYTAVVSHRSGETEDSTIADIAVATNAGQIKTGSLSRTDRIAKYNQLLRIEDQLGEVAQYKGIKSFYNLAA
Turning to B3, the “stoichiometry N” value in the data set “AUC [1]” came to 8. Also, the percent as octamer in the data set “AUC [2]” is not below 95%.
